According to the supplement of paper PMC7877785:
± gives the uncertainty stated by the source.

Assay: self-splicing fitness, log relative to wild type (ln ratio); higher = more splicing; Tetrahymena group I intron in knt gene, E. coli kanamycin selection, DiMSum; sequences stand for … in CUCUCU…GGAGGGAAAAGUUAUCAGGCAUGCACCUGGUAGCUAGUCUUUAAACCAAUAGAUUGCAUCGGUUUAAAAGGCAAGACCGUCAAAUUGCGGGAAAGGGGUCAACAGCCGUUCAGUACCAAGUCUCAGGGGAAACUUUGAGAUGGCCUUGCAAAGGGUAUGGUAAUAAGCUGACGGACAUGGUCCUAACCACGCAGCCAAGUCCUAAGUCAACAGAUCUUCUGUUGAUAUGGAUGCAGUUCACAGACUAAAUGUCGGUCGGGGAAGAUGUAUUCUUCUCAUAAGAUAUAGUCGGACCUCUCCUUAAUGGGAGCUAGCGGAUGAAGUGAUGCAACACUGGAGCCGCUGGGAACUAAUUUGUAUGCGAAAGUAUAUUGAUUAGUUUUGGAGUACUCGUGGUCG
Method in brief: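 Colonies from six replicate transformations of E. coli BL21(DE3) were pooled and amplicon-sequenced on an Illumina HiSeq 2500. The library placed an intron with all eight P1ex-region nucleotides randomised inside the knt kanamycin-resistance gene on pET-22b(+), and cells grew overnight at 37°C or 30°C on LB agar with or without 25 μg/mL kanamycin (plus 100 μg/mL carbenicillin, 50 μM IPTG, 0.2% rhamnose). Fitness is the DiMSum error-weighted combination of wild-type-normalised replicate fold changes, kanamycin versus none.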

Row | Sequence | self-splicing fitness (ln) (30 °C) | self-splicing fitness (ln) (37 °C)
1 | CCGAAGCAAUAUUACGUAGA | -3.45 ± 0.17 | -1.06 ± 0.17
2 | CCGAAGCAAUAUUACGUCAA | -3.82 ± 0.38 | -2.35 ± 0.33
3 | CCGAAGCAAUAUUACGUCUG | -0.669 ± 0.06 | -0.285 ± 0.068
4 | CCGAAGCAAUAUUACGUGAU | -3.4 ± 0.13 | -2.84 ± 0.19
5 | CCGAAGCAAUAUUACGUGGG | -3.82 ± 0.14 | -2.39 ± 0.14
6 | CCGAAGCAAUAUUACGUUUA | -3.96 ± 0.26 | -2.95 ± 0.19
7 | CCGAAGCAAUAUUACGUUUG | -4.44 ± 0.22 | -0.979 ± 0.1
8 | CCGCAGCAAUAUUACGAAGC | -3.14 ± 0.22 | -3.36 ± 0.25
9 | CCGCAGCAAUAUUACGAUAG | -0.786 ± 0.052 | 0.602 ± 0.07
10 | CCGCAGCAAUAUUACGCCCC | -3.29 ± 0.36 | -1.4 ± 0.45
11 | CCGCAGCAAUAUUACGCCUC | -2.79 ± 0.12 | -2.04 ± 0.14
12 | CCGCAGCAAUAUUACGCGCU | -3.09 ± 0.21 | -2.01 ± 0.23
13 | CCGCAGCAAUAUUACGCUAC | -4.14 ± 0.28 | -2.37 ± 0.23
14 | CCGCAGCAAUAUUACGCUUG | -3 ± 0.12 | -2.84 ± 0.16
15 | CCGCAGCAAUAUUACGGACA | -4.06 ± 0.46 | -2.57 ± 0.17
16 | CCGCAGCAAUAUUACGGAGG | -3.01 ± 0.16 | -1.81 ± 0.18
17 | CCGCAGCAAUAUUACGGGUU | -3.79 ± 0.11 | -2.74 ± 0.11
18 | CCGCAGCAAUAUUACGGUCC | -3.73 ± 0.23 | -1.99 ± 0.23
19 | CCGCAGCAAUAUUACGGUCU | -4.37 ± 0.2 | -3.65 ± 0.23
20 | CCGCAGCAAUAUUACGUGGA | -3.51 ± 0.23 | -2.43 ± 0.22
21 | CCGCAGCAAUAUUACGUUCU | -3.87 ± 0.19 | -3.16 ± 0.26
22 | CCGCAGCAAUAUUACGUUGA | -3.59 ± 0.16 | -3.41 ± 0.25
23 | CCGGAGCAAUAUUACGAAGA | -3.63 ± 0.23 | -1.97 ± 0.16
24 | CCGGAGCAAUAUUACGAGGG | -2.13 ± 0.27 | -1.47 ± 0.29
25 | CCGGAGCAAUAUUACGAGUC | -3.15 ± 0.26 | -1.85 ± 0.28

Row | Sequence | self-splicing fitness (ln) (30 °C) | self-splicing fitness (ln) (37 °C)
26 | CCGGAGCAAUAUUACGAUGU | -1.72 ± 0.14 | -0.726 ± 0.17
27 | CCGGAGCAAUAUUACGAUUU | -2.51 ± 0.36 | -2.26 ± 0.3
28 | CCGGAGCAAUAUUACGCAUU | -2.9 ± 0.39 | -1.81 ± 0.45
29 | CCGGAGCAAUAUUACGCGCG | -2.44 ± 0.2 | -0.558 ± 0.22
30 | CCGGAGCAAUAUUACGCUAG | -3.07 ± 0.21 | -2.33 ± 0.26
31 | CCGGAGCAAUAUUACGCUAU |  | -2.1 ± 0.2
32 | CCGGAGCAAUAUUACGCUGG | -1.99 ± 0.21 | 
33 | CCGGAGCAAUAUUACGGAGC | -3.73 ± 0.48 | -2.55 ± 0.44
34 | CCGGAGCAAUAUUACGGGCA | -3.1 ± 0.48 | -2.4 ± 0.41
35 | CCGGAGCAAUAUUACGUAAG | -0.00724 ± 0.087 | 0.176 ± 0.13
36 | CCGGAGCAAUAUUACGUACA | -3.36 ± 0.4 | 
37 | CCGGAGCAAUAUUACGUAGC | -2.74 ± 0.31 | -2.04 ± 0.46
38 | CCGGAGCAAUAUUACGUAGG | -3.55 ± 0.26 | -2.66 ± 0.3
39 | CCGGAGCAAUAUUACGUAGU | -4.17 ± 0.25 | -3.22 ± 0.22
40 | CCGGAGCAAUAUUACGUCCG | -3.03 ± 0.37 | 
41 | CCGGAGCAAUAUUACGUCGU | -3.43 ± 0.22 | -1.51 ± 0.18
42 | CCGGAGCAAUAUUACGUGGG | -3.39 ± 0.31 | -2.78 ± 0.38
43 | CCGGAGCAAUAUUACGUGUU | -3.46 ± 0.24 | -2.01 ± 0.19
44 | CCGGAGCAAUAUUACGUUAC | -3.75 ± 0.2 | -1.67 ± 0.2
45 | CCGGAGCAAUAUUACGUUGG | -3.57 ± 0.24 | -2.47 ± 0.26
46 | CCGGAGCAAUAUUACGUUUC | -2.4 ± 0.31 | -2.74 ± 0.48
47 | CCGUAGCAAUAUUACGACGA | -0.268 ± 0.11 | -0.689 ± 0.1
48 | CCGUAGCAAUAUUACGAGAU | -3.86 ± 0.32 | -2.29 ± 0.3
49 | CCGUAGCAAUAUUACGCACC |  | -2.21 ± 0.37
